Measured values: paper PMC10786891, “Massively parallel profiling of RNA-targeting CRISPR-Cas13d”

T1: EsCas13d, nuclease-dead (Eubacterium siraeum, UniProt B0MS50, R295A;H300A;R849A;H854A)
T1 sequence: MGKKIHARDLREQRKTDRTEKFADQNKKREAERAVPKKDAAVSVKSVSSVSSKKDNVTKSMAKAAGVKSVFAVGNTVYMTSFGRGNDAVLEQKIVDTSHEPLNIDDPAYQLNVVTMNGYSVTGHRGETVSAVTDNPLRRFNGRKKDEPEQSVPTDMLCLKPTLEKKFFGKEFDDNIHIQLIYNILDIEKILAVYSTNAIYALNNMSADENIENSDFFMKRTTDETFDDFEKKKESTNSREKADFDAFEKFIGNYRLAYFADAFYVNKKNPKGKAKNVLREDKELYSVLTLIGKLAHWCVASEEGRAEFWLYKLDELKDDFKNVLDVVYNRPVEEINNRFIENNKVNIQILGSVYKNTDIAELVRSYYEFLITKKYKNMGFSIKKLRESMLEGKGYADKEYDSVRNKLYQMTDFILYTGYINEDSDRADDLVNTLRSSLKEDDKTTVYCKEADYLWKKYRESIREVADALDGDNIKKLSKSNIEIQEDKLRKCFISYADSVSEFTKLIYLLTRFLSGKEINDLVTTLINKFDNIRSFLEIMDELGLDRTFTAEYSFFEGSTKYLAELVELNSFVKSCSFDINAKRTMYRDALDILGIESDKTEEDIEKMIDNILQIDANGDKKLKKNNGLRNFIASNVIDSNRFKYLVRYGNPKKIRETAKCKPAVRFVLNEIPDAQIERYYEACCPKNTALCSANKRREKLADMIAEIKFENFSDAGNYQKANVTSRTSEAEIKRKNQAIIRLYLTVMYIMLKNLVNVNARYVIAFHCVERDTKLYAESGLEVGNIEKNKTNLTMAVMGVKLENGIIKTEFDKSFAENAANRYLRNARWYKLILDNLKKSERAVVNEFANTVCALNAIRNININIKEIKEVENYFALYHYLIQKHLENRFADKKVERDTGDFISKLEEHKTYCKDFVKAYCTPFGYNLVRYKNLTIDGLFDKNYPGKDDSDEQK


These binders were tested against T1, EsCas13d, nuclease-dead (assay: crRNA (strand 1, pre-loaded); Mg2+; 40 mM Tris-HCl pH 7.5, 150 mM NaCl, 6 mM MgCl2, 1 mM DTT, 0.1% Tween-20, 0.2 mg/ml BSA; 25 C; 10 min per concentration, then washed). Details: tags: His6-TwinStrep-SUMO cleaved; N-terminal SNAP kept (SNAP-Surface 488); label: 3' end held by stalled T7 RNA polymerase.

Binder	Kd [nM]
target 1 MT 5'PFS AGG 3'PFS AUA (mixed) RNA 1: CACCCGUGCAAAAAUGCAGGGGUCUAAAACUGAGCGGAUAACCUCUCUAUGG RNA 2: GGGAAUGGAUCCACAUCUACGAAUUCAGGCCAUAGAGAGGUUAUCCGCUCAAUAAGAUCGGAAGAGCACACGU	26.5 ± 8.5
target 1 MT 5'PFS GAC 3'PFS ACU (mixed) RNA 1: CACCCGUGCAAAAAUGCAGGGGUCUAAAACUGAGCGGAUAACCUCUCUAUGG RNA 2: GGGAAUGGAUCCACAUCUACGAAUUCGACCCAUAGAGAGGUUAUCCGCUCAACUAGAUCGGAAGAGCACACGU	14 ± 5
target 1 MT 5'PFS GAC 3'PFS ACA (mixed) RNA 1: CACCCGUGCAAAAAUGCAGGGGUCUAAAACUGAGCGGAUAACCUCUCUAUGG RNA 2: GGGAAUGGAUCCACAUCUACGAAUUCGACCCAUAGAGAGGUUAUCCGCUCAACAAGAUCGGAAGAGCACACGU	~46
target 1 MT 5'PFS CUU 3'PFS AGU (mixed) RNA 1: CACCCGUGCAAAAAUGCAGGGGUCUAAAACUGAGCGGAUAACCUCUCUAUGG RNA 2: GGGAAUGGAUCCACAUCUACGAAUUCCUUCCAUAGAGAGGUUAUCCGCUCAAGUAGAUCGGAAGAGCACACGU	48 ± 12.5
target 1 MT 5'PFS UCC 3'PFS AAA (mixed) RNA 1: CACCCGUGCAAAAAUGCAGGGGUCUAAAACUGAGCGGAUAACCUCUCUAUGG RNA 2: GGGAAUGGAUCCACAUCUACGAAUUCUCCCCAUAGAGAGGUUAUCCGCUCAAAAAGAUCGGAAGAGCACACGU	~23.5
target 1 insU 3' of 17,insA 3' of 5 (mixed) RNA 1: CACCCGUGCAAAAAUGCAGGGGUCUAAAACUGAGCGGAUAACCUCUCUAUGG RNA 2: GGGAAUGGAUCCACAUCUACGAAUUCGUACCAUAGUAGAGGUUAUCCGACUCACCGAGAUCGGAAGAGCACACGU	19 ± 4
target 1 MT 5'PFS UGC 3'PFS AGA (mixed) RNA 1: CACCCGUGCAAAAAUGCAGGGGUCUAAAACUGAGCGGAUAACCUCUCUAUGG RNA 2: GGGAAUGGAUCCACAUCUACGAAUUCUGCCCAUAGAGAGGUUAUCCGCUCAAGAAGAUCGGAAGAGCACACGU	~23
target 1 MT 5'PFS ACA 3'PFS UCU (mixed) RNA 1: CACCCGUGCAAAAAUGCAGGGGUCUAAAACUGAGCGGAUAACCUCUCUAUGG RNA 2: GGGAAUGGAUCCACAUCUACGAAUUCACACCAUAGAGAGGUUAUCCGCUCAUCUAGAUCGGAAGAGCACACGU	7.4 ± 2.8
target 1 MT 5'PFS GUA 3'PFS ACC (mixed) RNA 1: CACCCGUGCAAAAAUGCAGGGGUCUAAAACUGAGCGGAUAACCUCUCUAUGG RNA 2: GGGAAUGGAUCCACAUCUACGAAUUCGUACCAUAGAGAGGUUAUCCGCUCAACCAGAUCGGAAGAGCACACGU	7.95 ± 0.8
target 1 MT 5'PFS GAC 3'PFS ACC (mixed) RNA 1: CACCCGUGCAAAAAUGCAGGGGUCUAAAACUGAGCGGAUAACCUCUCUAUGG RNA 2: GGGAAUGGAUCCACAUCUACGAAUUCGACCCAUAGAGAGGUUAUCCGCUCAACCAGAUCGGAAGAGCACACGU	75.5 ± 37.5
target 1 MT 5'PFS GAA 3'PFS UUU (mixed) RNA 1: CACCCGUGCAAAAAUGCAGGGGUCUAAAACUGAGCGGAUAACCUCUCUAUGG RNA 2: GGGAAUGGAUCCACAUCUACGAAUUCGAACCAUAGAGAGGUUAUCCGCUCAUUUAGAUCGGAAGAGCACACGU	15.3 ± 2.75
target 1 MT 5'PFS UGU 3'PFS CCG (mixed) RNA 1: CACCCGUGCAAAAAUGCAGGGGUCUAAAACUGAGCGGAUAACCUCUCUAUGG RNA 2: GGGAAUGGAUCCACAUCUACGAAUUCUGUCCAUAGAGAGGUUAUCCGCUCACCGAGAUCGGAAGAGCACACGU	34.5 ± 13.5
target 1 MT 5'PFS GUA 3'PFS ACA (mixed) RNA 1: CACCCGUGCAAAAAUGCAGGGGUCUAAAACUGAGCGGAUAACCUCUCUAUGG RNA 2: GGGAAUGGAUCCACAUCUACGAAUUCGUACCAUAGAGAGGUUAUCCGCUCAACAAGAUCGGAAGAGCACACGU	17.6 ± 1.45
target 1 MT 5'PFS AGG 3'PFS AUU (mixed) RNA 1: CACCCGUGCAAAAAUGCAGGGGUCUAAAACUGAGCGGAUAACCUCUCUAUGG RNA 2: GGGAAUGGAUCCACAUCUACGAAUUCAGGCCAUAGAGAGGUUAUCCGCUCAAUUAGAUCGGAAGAGCACACGU	26.5 ± 7
target 1 MT 5'PFS GAA 3'PFS UUC (mixed) RNA 1: CACCCGUGCAAAAAUGCAGGGGUCUAAAACUGAGCGGAUAACCUCUCUAUGG RNA 2: GGGAAUGGAUCCACAUCUACGAAUUCGAACCAUAGAGAGGUUAUCCGCUCAUUCAGAUCGGAAGAGCACACGU	51 ± 21
target 1 A18C,C22A (mixed) RNA 1: CACCCGUGCAAAAAUGCAGGGGUCUAAAACUGAGCGGAUAACCUCUCUAUGG RNA 2: GGGAAUGGAUCCACAUCUACGAAUUCGUAACAUCGAGAGGUUAUCCGCUCACCGAGAUCGGAAGAGCACACGU	67 ± 13
target 1 insU 3' of 18,insG 3' of 16 (mixed) RNA 1: CACCCGUGCAAAAAUGCAGGGGUCUAAAACUGAGCGGAUAACCUCUCUAUGG RNA 2: GGGAAUGGAUCCACAUCUACGAAUUCGUACCAUAUGAGGAGGUUAUCCGCUCACCGAGAUCGGAAGAGCACACGU	73 ± 31
target 1 MT 5'PFS UCG 3'PFS CAA (mixed) RNA 1: CACCCGUGCAAAAAUGCAGGGGUCUAAAACUGAGCGGAUAACCUCUCUAUGG RNA 2: GGGAAUGGAUCCACAUCUACGAAUUCUCGCCAUAGAGAGGUUAUCCGCUCACAAAGAUCGGAAGAGCACACGU	~44
target 1 MT 5'PFS GAA 3'PFS UUG (mixed) RNA 1: CACCCGUGCAAAAAUGCAGGGGUCUAAAACUGAGCGGAUAACCUCUCUAUGG RNA 2: GGGAAUGGAUCCACAUCUACGAAUUCGAACCAUAGAGAGGUUAUCCGCUCAUUGAGAUCGGAAGAGCACACGU	12.8 ± 2.6
target 1 MT 5'PFS ACA 3'PFS UCG (mixed) RNA 1: CACCCGUGCAAAAAUGCAGGGGUCUAAAACUGAGCGGAUAACCUCUCUAUGG RNA 2: GGGAAUGGAUCCACAUCUACGAAUUCACACCAUAGAGAGGUUAUCCGCUCAUCGAGAUCGGAAGAGCACACGU	7.7 ± 1.55
target 1 MT 5'PFS UCG 3'PFS CAC (mixed) RNA 1: CACCCGUGCAAAAAUGCAGGGGUCUAAAACUGAGCGGAUAACCUCUCUAUGG RNA 2: GGGAAUGGAUCCACAUCUACGAAUUCUCGCCAUAGAGAGGUUAUCCGCUCACACAGAUCGGAAGAGCACACGU	~43.5
target 1 MT 5'PFS GAA 3'PFS UUA (mixed) RNA 1: CACCCGUGCAAAAAUGCAGGGGUCUAAAACUGAGCGGAUAACCUCUCUAUGG RNA 2: GGGAAUGGAUCCACAUCUACGAAUUCGAACCAUAGAGAGGUUAUCCGCUCAUUAAGAUCGGAAGAGCACACGU	16 ± 2.15
target 1 MT 5'PFS GUA 3'PFS ACU (mixed) RNA 1: CACCCGUGCAAAAAUGCAGGGGUCUAAAACUGAGCGGAUAACCUCUCUAUGG RNA 2: GGGAAUGGAUCCACAUCUACGAAUUCGUACCAUAGAGAGGUUAUCCGCUCAACUAGAUCGGAAGAGCACACGU	10.6 ± 0.75
target 1 MT 5'PFS UAG 3'PFS UAA (mixed) RNA 1: CACCCGUGCAAAAAUGCAGGGGUCUAAAACUGAGCGGAUAACCUCUCUAUGG RNA 2: GGGAAUGGAUCCACAUCUACGAAUUCUAGCCAUAGAGAGGUUAUCCGCUCAUAAAGAUCGGAAGAGCACACGU	21.4 ± 4.8
target 1 MT 5'PFS GAC 3'PFS ACG (mixed) RNA 1: CACCCGUGCAAAAAUGCAGGGGUCUAAAACUGAGCGGAUAACCUCUCUAUGG RNA 2: GGGAAUGGAUCCACAUCUACGAAUUCGACCCAUAGAGAGGUUAUCCGCUCAACGAGAUCGGAAGAGCACACGU	16.7 ± 3.95
target 1 MT 5'PFS UCG 3'PFS CAU (mixed) RNA 1: CACCCGUGCAAAAAUGCAGGGGUCUAAAACUGAGCGGAUAACCUCUCUAUGG RNA 2: GGGAAUGGAUCCACAUCUACGAAUUCUCGCCAUAGAGAGGUUAUCCGCUCACAUAGAUCGGAAGAGCACACGU	~80
target 1 MT 5'PFS GUA 3'PFS ACG (mixed) RNA 1: CACCCGUGCAAAAAUGCAGGGGUCUAAAACUGAGCGGAUAACCUCUCUAUGG RNA 2: GGGAAUGGAUCCACAUCUACGAAUUCGUACCAUAGAGAGGUUAUCCGCUCAACGAGAUCGGAAGAGCACACGU	11 ± 0.92
target 1 MT 5'PFS CAC 3'PFS CAA (mixed) RNA 1: CACCCGUGCAAAAAUGCAGGGGUCUAAAACUGAGCGGAUAACCUCUCUAUGG RNA 2: GGGAAUGGAUCCACAUCUACGAAUUCCACCCAUAGAGAGGUUAUCCGCUCACAAAGAUCGGAAGAGCACACGU	12 ± 6
